Patent US20210301277

T1: human TF (Innovin, DADE/Behring), P13726
T1 chain: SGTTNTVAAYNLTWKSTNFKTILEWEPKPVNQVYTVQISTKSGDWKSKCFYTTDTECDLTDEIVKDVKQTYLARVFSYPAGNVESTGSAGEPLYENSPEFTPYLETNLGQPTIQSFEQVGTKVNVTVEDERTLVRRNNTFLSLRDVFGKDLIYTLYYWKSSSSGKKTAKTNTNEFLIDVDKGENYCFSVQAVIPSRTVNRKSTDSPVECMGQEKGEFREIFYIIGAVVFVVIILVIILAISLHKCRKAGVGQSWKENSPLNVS

B1: FIXgla-egf1FVIIa (protein)
chain: YNSGKLEEFVQGNLERECMEEKCSFEEAREVFENTERTTEFWKQYVDGDQCESNPCLNGGSCKDDINSYECWCPFGFEGKNCETHKDDQLICVNENGGCEQYCSDHTGTKRSCRCHEGYSLLADGVSCTPTVEYPCGKIPILEKRNASKPQGRIVGGKVCPKGECPWQVLLLVNGAQLCGGTLINTIWVVSAAHCFDKIKNWRNLIAVLGEHDLSEHDGDEQSRRVAQVIIPSTYVPGTTNHDIALLRLHQPVVLTDHVVPLCLPERTFSERTLAFVRFSLVSGWGQLLDRGATALELMVLNVPRLMTQDCLQQSRKVGDSPNITEYMFCAGYSDGSKDSCKGDSGGPHATHYRGTWYLTGIVSWGQGCATVGHFGVYTRVSQYIEWLQKLMRSEPRPGVLLRAPFP
B2: PCgla-egf1FVIIa (protein)
chain 1: ANSFLEELRHSSLERECIEEICDFEEAKEIFQNVDDTLAFWSKHVDGDQCLVLPLEHPCASLCCGHGTCIDGIGSFSCDCRSGWEGRFCQRKDDQLICVNENGGCEQYCSDHTGTKRSCRCHEGYSLLADGVSCTPTVEYPCGKIPILEKRNASKPQGR
chain 2: IVGGKVCPKGECPWQVLLLVNGAQLCGGTLINTIWVVSAAHCFDKIKNWRNLIAVLGEHDLSEHDGDEQSRRVAQVIIPSTYVPGTTNHDIALLRLHQPVVLTDHVVPLCLPERTFSERTLAFVRFSLVSGWGQLLDRGATALELMVLNVPRLMTQDCLQQSRKVGDSPNITEYMFCAGYSDGSKDSCKGDSGGPHATHYRGTWYLTGIVSWGQGCATVGHFGVYTRVSQYIEWLQKLMRSEPRPGVLLRAPFP

Biological target: T1, human TF (Innovin, DADE/Behring), P13726

| Protein | FX activation in the presence of 1 nM TF (FXa generation rates, mOD/min) | TF-dependent activity (FX activation, cleavage of chromogenic FXa substrate at 405 nm) |
| --- | --- | --- |
| B1 | The lack of FX activation, even at 100-fold higher concentration than that of rFVIIa |  |
| B2 | The lack of FX activation, even at 100-fold higher concentration than that of rFVIIa | the activity of PCgla-egf1FVIIa was identical to the vehicle control |
